Several values for one entry are separate records, joined by “and”; a condition that tells them apart may be missing. Identical values can stand only once.
Biological target: human epidermal growth factor receptor 2 (HER2) extracellular domain (human, UniProt P04626 23-629)
Assay: SPR

Binder	Kd	log(KD (M))
Trastuzumab HCDR3 variant ARYGYGYYYYFDY (Fab, V domains shown) VH: EVQLVESGGGLVQPGGSLRLSCAASGFNIKDTYIHWVRQAPGKGLEWVARIYPTNGYTRYADSVKGRFTISADTSKNTAYLQMNSLRAEDTAVYYCARYGYGYYYYFDYWGQGTLVTVSS VL: not shown	39.1 nM	-7.41 log(M)
Trastuzumab HCDR3 variant AIWSMYDVGYYPF (Fab, V domains shown) VH: EVQLVESGGGLVQPGGSLRLSCAASGFNIKDTYIHWVRQAPGKGLEWVARIYPTNGYTRYADSVKGRFTISADTSKNTAYLQMNSLRAEDTAVYYCAIWSMYDVGYYPFWGQGTLVTVSS VL: not shown	71.8 nM	-7.14 log(M)
Trastuzumab HCDR3 variant AGSSASGWYHYTT (Fab, V domains shown) VH: EVQLVESGGGLVQPGGSLRLSCAASGFNIKDTYIHWVRQAPGKGLEWVARIYPTNGYTRYADSVKGRFTISADTSKNTAYLQMNSLRAEDTAVYYCAGSSASGWYHYTTWGQGTLVTVSS VL: not shown	42.3 nM and 42.2 nM	-7.37 log(M)
Trastuzumab HCDR3 variant AGYEGYGLYPFAY (Fab, V domains shown) VH: EVQLVESGGGLVQPGGSLRLSCAASGFNIKDTYIHWVRQAPGKGLEWVARIYPTNGYTRYADSVKGRFTISADTSKNTAYLQMNSLRAEDTAVYYCAGYEGYGLYPFAYWGQGTLVTVSS VL: not shown	128 nM	-6.89 log(M)
Trastuzumab HCDR3 variant AGSVAEGWYHYRD (Fab, V domains shown) VH: EVQLVESGGGLVQPGGSLRLSCAASGFNIKDTYIHWVRQAPGKGLEWVARIYPTNGYTRYADSVKGRFTISADTSKNTAYLQMNSLRAEDTAVYYCAGSVAEGWYHYRDWGQGTLVTVSS VL: not shown	60.3 nM	-7.22 log(M)
Trastuzumab HCDR3 variant ARYPDYYYAMDY (Fab, V domains shown) VH: EVQLVESGGGLVQPGGSLRLSCAASGFNIKDTYIHWVRQAPGKGLEWVARIYPTNGYTRYADSVKGRFTISADTSKNTAYLQMNSLRAEDTAVYYCARYPDYYYAMDYWGQGTLVTVSS VL: not shown	117 nM	-6.93 log(M)
Trastuzumab HCDR3 variant ASGDLTAGSSQT (Fab, V domains shown) VH: EVQLVESGGGLVQPGGSLRLSCAASGFNIKDTYIHWVRQAPGKGLEWVARIYPTNGYTRYADSVKGRFTISADTSKNTAYLQMNSLRAEDTAVYYCASGDLTAGSSQTWGQGTLVTVSS VL: not shown	219 nM	-6.66 log(M)
Trastuzumab HCDR3 variant SRWYGDYFAMDY (Fab, V domains shown) VH: EVQLVESGGGLVQPGGSLRLSCAASGFNIKDTYIHWVRQAPGKGLEWVARIYPTNGYTRYADSVKGRFTISADTSKNTAYLQMNSLRAEDTAVYYCSRWYGDYFAMDYWGQGTLVTVSS VL: not shown	51.8 nM	-7.29 log(M)
Trastuzumab HCDR3 variant TRNGPLYWHWDL (Fab, V domains shown) VH: EVQLVESGGGLVQPGGSLRLSCAASGFNIKDTYIHWVRQAPGKGLEWVARIYPTNGYTRYADSVKGRFTISADTSKNTAYLQMNSLRAEDTAVYYCTRNGPLYWHWDLWGQGTLVTVSS VL: not shown	234 nM	-6.63 log(M)
Trastuzumab HCDR3 variant ARYQAYDNSYGV (Fab, V domains shown) VH: EVQLVESGGGLVQPGGSLRLSCAASGFNIKDTYIHWVRQAPGKGLEWVARIYPTNGYTRYADSVKGRFTISADTSKNTAYLQMNSLRAEDTAVYYCARYQAYDNSYGVWGQGTLVTVSS VL: not shown	102 nM	-6.99 log(M)
Trastuzumab HCDR3 variant ASYYDYYYAFGT (Fab, V domains shown) VH: EVQLVESGGGLVQPGGSLRLSCAASGFNIKDTYIHWVRQAPGKGLEWVARIYPTNGYTRYADSVKGRFTISADTSKNTAYLQMNSLRAEDTAVYYCASYYDYYYAFGTWGQGTLVTVSS VL: not shown	36.1 nM	-7.44 log(M)
Trastuzumab HCDR3 variant VKHGIDYYWYGD (Fab, V domains shown) VH: EVQLVESGGGLVQPGGSLRLSCAASGFNIKDTYIHWVRQAPGKGLEWVARIYPTNGYTRYADSVKGRFTISADTSKNTAYLQMNSLRAEDTAVYYCVKHGIDYYWYGDWGQGTLVTVSS VL: not shown	60.1 nM	-7.22 log(M)
Trastuzumab HCDR3 variant ARYYGGLYYFDY (Fab, V domains shown) VH: EVQLVESGGGLVQPGGSLRLSCAASGFNIKDTYIHWVRQAPGKGLEWVARIYPTNGYTRYADSVKGRFTISADTSKNTAYLQMNSLRAEDTAVYYCARYYGGLYYFDYWGQGTLVTVSS VL: not shown	34.4 nM	-7.46 log(M)
Trastuzumab HCDR3 variant ARYYVGYYAMDY (Fab, V domains shown) VH: EVQLVESGGGLVQPGGSLRLSCAASGFNIKDTYIHWVRQAPGKGLEWVARIYPTNGYTRYADSVKGRFTISADTSKNTAYLQMNSLRAEDTAVYYCARYYVGYYAMDYWGQGTLVTVSS VL: not shown	71.6 nM	-7.15 log(M)
Trastuzumab HCDR3 variant TRYYDGYYAMDY (Fab, V domains shown) VH: EVQLVESGGGLVQPGGSLRLSCAASGFNIKDTYIHWVRQAPGKGLEWVARIYPTNGYTRYADSVKGRFTISADTSKNTAYLQMNSLRAEDTAVYYCTRYYDGYYAMDYWGQGTLVTVSS VL: not shown	33.1 nM	-7.48 log(M)
Trastuzumab HCDR3 variant TRTRSGAYFFDY (Fab, V domains shown) VH: EVQLVESGGGLVQPGGSLRLSCAASGFNIKDTYIHWVRQAPGKGLEWVARIYPTNGYTRYADSVKGRFTISADTSKNTAYLQMNSLRAEDTAVYYCTRTRSGAYFFDYWGQGTLVTVSS VL: not shown	43.4 nM	-7.36 log(M)

Binder	Kd	log(KD (M))
Trastuzumab HCDR3 variant ARYPYGYYAMDY (Fab, V domains shown) VH: EVQLVESGGGLVQPGGSLRLSCAASGFNIKDTYIHWVRQAPGKGLEWVARIYPTNGYTRYADSVKGRFTISADTSKNTAYLQMNSLRAEDTAVYYCARYPYGYYAMDYWGQGTLVTVSS VL: not shown	78.1 nM	-7.11 log(M)
Trastuzumab HCDR3 variant ARYSYGAFYYSI (Fab, V domains shown) VH: EVQLVESGGGLVQPGGSLRLSCAASGFNIKDTYIHWVRQAPGKGLEWVARIYPTNGYTRYADSVKGRFTISADTSKNTAYLQMNSLRAEDTAVYYCARYSYGAFYYSIWGQGTLVTVSS VL: not shown	70.4 nM	-7.15 log(M)
Trastuzumab HCDR3 variant ASYMGIVGYYPG (Fab, V domains shown) VH: EVQLVESGGGLVQPGGSLRLSCAASGFNIKDTYIHWVRQAPGKGLEWVARIYPTNGYTRYADSVKGRFTISADTSKNTAYLQMNSLRAEDTAVYYCASYMGIVGYYPGWGQGTLVTVSS VL: not shown	62.3 nM	-7.21 log(M)
Trastuzumab HCDR3 variant ATGPYTVYSYPY (Fab, V domains shown) VH: EVQLVESGGGLVQPGGSLRLSCAASGFNIKDTYIHWVRQAPGKGLEWVARIYPTNGYTRYADSVKGRFTISADTSKNTAYLQMNSLRAEDTAVYYCATGPYTVYSYPYWGQGTLVTVSS VL: not shown	120 nM	-6.92 log(M)
Trastuzumab HCDR3 variant TRYFYDFPYMDY (Fab, V domains shown) VH: EVQLVESGGGLVQPGGSLRLSCAASGFNIKDTYIHWVRQAPGKGLEWVARIYPTNGYTRYADSVKGRFTISADTSKNTAYLQMNSLRAEDTAVYYCTRYFYDFPYMDYWGQGTLVTVSS VL: not shown	56.8 nM	-7.25 log(M)
Trastuzumab HCDR3 variant … (Fab, V domains shown) VH: EVQLVESGGGLVQPGGSLRLSCAASGFNIKDTYIHWVRQAPGKGLEWVARIYPTNGYTRYADSVKGRFTISADTSKNTAYLQMNSLRAEDTAVYYCARYYDYGYTFDYWGQGTLVTVSS VL: not shown	61.2 nM	-7.21 log(M)
Trastuzumab HCDR3 variant ARYYYSGYYMSV (Fab, V domains shown) VH: EVQLVESGGGLVQPGGSLRLSCAASGFNIKDTYIHWVRQAPGKGLEWVARIYPTNGYTRYADSVKGRFTISADTSKNTAYLQMNSLRAEDTAVYYCARYYYSGYYMSVWGQGTLVTVSS VL: not shown	85.2 nM	-7.07 log(M)
Trastuzumab HCDR3 variant ARYYGYYYYMDY (Fab, V domains shown) VH: EVQLVESGGGLVQPGGSLRLSCAASGFNIKDTYIHWVRQAPGKGLEWVARIYPTNGYTRYADSVKGRFTISADTSKNTAYLQMNSLRAEDTAVYYCARYYGYYYYMDYWGQGTLVTVSS VL: not shown	74.3 nM	-7.13 log(M)
Trastuzumab HCDR3 variant ATNAFGLWSYGF (Fab, V domains shown) VH: EVQLVESGGGLVQPGGSLRLSCAASGFNIKDTYIHWVRQAPGKGLEWVARIYPTNGYTRYADSVKGRFTISADTSKNTAYLQMNSLRAEDTAVYYCATNAFGLWSYGFWGQGTLVTVSS VL: not shown	52.8 nM	-7.28 log(M)
Trastuzumab HCDR3 variant ARYWYGSYVFDY (Fab, V domains shown) VH: EVQLVESGGGLVQPGGSLRLSCAASGFNIKDTYIHWVRQAPGKGLEWVARIYPTNGYTRYADSVKGRFTISADTSKNTAYLQMNSLRAEDTAVYYCARYWYGSYVFDYWGQGTLVTVSS VL: not shown	78.3 nM	-7.11 log(M)
Trastuzumab HCDR3 variant ARYYDDTIYSFY (Fab, V domains shown) VH: EVQLVESGGGLVQPGGSLRLSCAASGFNIKDTYIHWVRQAPGKGLEWVARIYPTNGYTRYADSVKGRFTISADTSKNTAYLQMNSLRAEDTAVYYCARYYDDTIYSFYWGQGTLVTVSS VL: not shown	29.9 nM	-7.53 log(M)
Trastuzumab HCDR3 variant ARYPEDFYYFDV (Fab, V domains shown) VH: EVQLVESGGGLVQPGGSLRLSCAASGFNIKDTYIHWVRQAPGKGLEWVARIYPTNGYTRYADSVKGRFTISADTSKNTAYLQMNSLRAEDTAVYYCARYPEDFYYFDVWGQGTLVTVSS VL: not shown	40.2 nM	-7.4 log(M)
Trastuzumab HCDR3 variant VRYYRGYYYFDY (Fab, V domains shown) VH: EVQLVESGGGLVQPGGSLRLSCAASGFNIKDTYIHWVRQAPGKGLEWVARIYPTNGYTRYADSVKGRFTISADTSKNTAYLQMNSLRAEDTAVYYCVRYYRGYYYFDYWGQGTLVTVSS VL: not shown	96.4 nM	-7.02 log(M)
Trastuzumab HCDR3 variant SIYGTDYYWFAD (Fab, V domains shown) VH: EVQLVESGGGLVQPGGSLRLSCAASGFNIKDTYIHWVRQAPGKGLEWVARIYPTNGYTRYADSVKGRFTISADTSKNTAYLQMNSLRAEDTAVYYCSIYGTDYYWFADWGQGTLVTVSS VL: not shown	50.4 nM	-7.3 log(M)
Trastuzumab HCDR3 variant TRTTLGFYAMDY (Fab, V domains shown) VH: EVQLVESGGGLVQPGGSLRLSCAASGFNIKDTYIHWVRQAPGKGLEWVARIYPTNGYTRYADSVKGRFTISADTSKNTAYLQMNSLRAEDTAVYYCTRTTLGFYAMDYWGQGTLVTVSS VL: not shown	32.3 nM	-7.49 log(M)
Trastuzumab HCDR3 variant TLNGPLYWMWTL (Fab, V domains shown) VH: EVQLVESGGGLVQPGGSLRLSCAASGFNIKDTYIHWVRQAPGKGLEWVARIYPTNGYTRYADSVKGRFTISADTSKNTAYLQMNSLRAEDTAVYYCTLNGPLYWMWTLWGQGTLVTVSS VL: not shown	116 nM	-6.94 log(M)
